According to publication PMC8546688:

Target: His-tagged FtsZ (filamentous temperature-sensitive protein Z) (Streptococcus suis)
Test: SPR; His-tagged FtsZ immobilized onto sensor chips as the ligand; MsmK constructs in concentration series as analytes; buffer without protein as negative control

Substance | Kd | koff | kon
A_MsmK, MsmK with the Walker A motif deleted, His-tagged (from UniProt A0A0H3N1P0 1-376) (enzyme) | 0.406 nM | 0.000102 s⁻¹ | 251000 M⁻¹ s⁻¹
B_MsmK, MsmK with the Walker B motif deleted, His-tagged (from UniProt A0A0H3N1P0 1-376) (enzyme) | 0.309 nM | 0.000132 s⁻¹ | 427000 M⁻¹ s⁻¹
